Holding throughout (assay): cryo-EM structure; purified Wzc at ~2 mg/ml in LMNG, incubated with 1 mM ADP and 10 mM MgCl2 at 4 °C for 1 h; maps refined without symmetry (C1) or with C8 symmetry; octamer of one protein
Assay [1] concerns the target Wzc^K540M2YE (K540M, Y718E, Y717E) from E. coli serotype K30 (E. coli K30) (UniProt P76387).
Assay [2] concerns the target Wzc^K540M3YE (K540M, Y718E, Y717E and Y715E) from E. coli serotype K30 (E. coli K30) (UniProt P76387).
The target of assay [3] is Wzc^K540M3YE_N711Y (K540M, Y718E, Y717E, Y715E and N711Y) from E. coli serotype K30 (E. coli K30) (UniProt P76387).

Consider “Wzc^K540M2YE (K540M, Y718E, Y717E) from E. coli serotype K30 (from UniProt P76387 1-720) (enzyme)”, for which the stoichiometry N in assay [1] was found to be 8. In assay [2], “Wzc^K540M3YE (K540M, Y718E, Y717E and Y715E) from E. coli serotype K30 (from UniProt P76387 1-720) (enzyme)” gave a stoichiometry N of 8.

In turn, “Wzc^K540M3YE_N711Y (K540M, Y718E, Y717E, Y715E and N711Y) from E. coli serotype K30 (from UniProt P76387 1-720) (enzyme)” showed a stoichiometry N in assay [3] of 8.

In general, stoichiometry N refers to the number of molecules, sites or subunits per partner or assembly.

For the origin of these results see article PMC11986026.
